Results from patent publication US20220040297A1 (Chugai, published 2022).

B1: CE115HA000 G100bE (antibody, name in Kabat numbering, V domains shown)
VH: QVQLVESGGGVVQPGRSLRLSCAASGFTFSNAWMHWVRQAPGKGLEWVAQIKAKSNNYATYYAESVKGRFTISRDDSKNSLYLQMNSLKTEDTAVYYCRYVHYGAYYEVDAWGQGTTVTVSS
VL: DIVMTQSPLSLPVTPGEPASISCRSSQSLVHSNRNTYLHWYQQKPGQAPRLLIYKVSNRFSGVPDRFSGSGSGTDFTLKISRVEAEDVGVYYCGQGTQVPYTFGQGTKLEIK
B2: CE115HA000 H35V (antibody, name in Kabat numbering, V domains shown)
VH: QVQLVESGGGVVQPGRSLRLSCAASGFTFSNAWMVWVRQAPGKGLEWVAQIKAKSNNYATYYAESVKGRFTISRDDSKNSLYLQMNSLKTEDTAVYYCRYVHYGAYYGVDAWGQGTTVTVSS
VL: DIVMTQSPLSLPVTPGEPASISCRSSQSLVHSNRNTYLHWYQQKPGQAPRLLIYKVSNRFSGVPDRFSGSGSGTDFTLKISRVEAEDVGVYYCGQGTQVPYTFGQGTKLEIK
B3: CE115HA000 H35N (antibody, name in Kabat numbering, V domains shown)
VH: QVQLVESGGGVVQPGRSLRLSCAASGFTFSNAWMNWVRQAPGKGLEWVAQIKAKSNNYATYYAESVKGRFTISRDDSKNSLYLQMNSLKTEDTAVYYCRYVHYGAYYGVDAWGQGTTVTVSS
VL: DIVMTQSPLSLPVTPGEPASISCRSSQSLVHSNRNTYLHWYQQKPGQAPRLLIYKVSNRFSGVPDRFSGSGSGTDFTLKISRVEAEDVGVYYCGQGTQVPYTFGQGTKLEIK
B4: CE115HA000 G100bF (antibody, name in Kabat numbering, V domains shown)
VH: QVQLVESGGGVVQPGRSLRLSCAASGFTFSNAWMHWVRQAPGKGLEWVAQIKAKSNNYATYYAESVKGRFTISRDDSKNSLYLQMNSLKTEDTAVYYCRYVHYGAYYFVDAWGQGTTVTVSS
VL: DIVMTQSPLSLPVTPGEPASISCRSSQSLVHSNRNTYLHWYQQKPGQAPRLLIYKVSNRFSGVPDRFSGSGSGTDFTLKISRVEAEDVGVYYCGQGTQVPYTFGQGTKLEIK
B5: CE115HA000 H35W (antibody, name in Kabat numbering, V domains shown)
VH: QVQLVESGGGVVQPGRSLRLSCAASGFTFSNAWMWWVRQAPGKGLEWVAQIKAKSNNYATYYAESVKGRFTISRDDSKNSLYLQMNSLKTEDTAVYYCRYVHYGAYYGVDAWGQGTTVTVSS
VL: DIVMTQSPLSLPVTPGEPASISCRSSQSLVHSNRNTYLHWYQQKPGQAPRLLIYKVSNRFSGVPDRFSGSGSGTDFTLKISRVEAEDVGVYYCGQGTQVPYTFGQGTKLEIK
B6: CE115HA000 H35T (antibody, name in Kabat numbering, V domains shown)
VH: QVQLVESGGGVVQPGRSLRLSCAASGFTFSNAWMTWVRQAPGKGLEWVAQIKAKSNNYATYYAESVKGRFTISRDDSKNSLYLQMNSLKTEDTAVYYCRYVHYGAYYGVDAWGQGTTVTVSS
VL: DIVMTQSPLSLPVTPGEPASISCRSSQSLVHSNRNTYLHWYQQKPGQAPRLLIYKVSNRFSGVPDRFSGSGSGTDFTLKISRVEAEDVGVYYCGQGTQVPYTFGQGTKLEIK
B7: CE115HA000 H35M (antibody, name in Kabat numbering, V domains shown)
VH: QVQLVESGGGVVQPGRSLRLSCAASGFTFSNAWMMWVRQAPGKGLEWVAQIKAKSNNYATYYAESVKGRFTISRDDSKNSLYLQMNSLKTEDTAVYYCRYVHYGAYYGVDAWGQGTTVTVSS
VL: DIVMTQSPLSLPVTPGEPASISCRSSQSLVHSNRNTYLHWYQQKPGQAPRLLIYKVSNRFSGVPDRFSGSGSGTDFTLKISRVEAEDVGVYYCGQGTQVPYTFGQGTKLEIK
B8: CE115HA000 G100bI (antibody, name in Kabat numbering, V domains shown)
VH: QVQLVESGGGVVQPGRSLRLSCAASGFTFSNAWMHWVRQAPGKGLEWVAQIKAKSNNYATYYAESVKGRFTISRDDSKNSLYLQMNSLKTEDTAVYYCRYVHYGAYYIVDAWGQGTTVTVSS
VL: DIVMTQSPLSLPVTPGEPASISCRSSQSLVHSNRNTYLHWYQQKPGQAPRLLIYKVSNRFSGVPDRFSGSGSGTDFTLKISRVEAEDVGVYYCGQGTQVPYTFGQGTKLEIK
B9: CE115HA000 G100bY (antibody, name in Kabat numbering, V domains shown)
VH: QVQLVESGGGVVQPGRSLRLSCAASGFTFSNAWMHWVRQAPGKGLEWVAQIKAKSNNYATYYAESVKGRFTISRDDSKNSLYLQMNSLKTEDTAVYYCRYVHYGAYYYVDAWGQGTTVTVSS
VL: DIVMTQSPLSLPVTPGEPASISCRSSQSLVHSNRNTYLHWYQQKPGQAPRLLIYKVSNRFSGVPDRFSGSGSGTDFTLKISRVEAEDVGVYYCGQGTQVPYTFGQGTKLEIK
B10: CE115HA000 H35I (antibody, name in Kabat numbering, V domains shown)
VH: QVQLVESGGGVVQPGRSLRLSCAASGFTFSNAWMIWVRQAPGKGLEWVAQIKAKSNNYATYYAESVKGRFTISRDDSKNSLYLQMNSLKTEDTAVYYCRYVHYGAYYGVDAWGQGTTVTVSS
VL: DIVMTQSPLSLPVTPGEPASISCRSSQSLVHSNRNTYLHWYQQKPGQAPRLLIYKVSNRFSGVPDRFSGSGSGTDFTLKISRVEAEDVGVYYCGQGTQVPYTFGQGTKLEIK
B11: CE115HA000 H35S (antibody, name in Kabat numbering, V domains shown)
VH: QVQLVESGGGVVQPGRSLRLSCAASGFTFSNAWMSWVRQAPGKGLEWVAQIKAKSNNYATYYAESVKGRFTISRDDSKNSLYLQMNSLKTEDTAVYYCRYVHYGAYYGVDAWGQGTTVTVSS
VL: DIVMTQSPLSLPVTPGEPASISCRSSQSLVHSNRNTYLHWYQQKPGQAPRLLIYKVSNRFSGVPDRFSGSGSGTDFTLKISRVEAEDVGVYYCGQGTQVPYTFGQGTKLEIK
B12: CE115HA000 H35K (antibody, name in Kabat numbering, V domains shown)
VH: QVQLVESGGGVVQPGRSLRLSCAASGFTFSNAWMKWVRQAPGKGLEWVAQIKAKSNNYATYYAESVKGRFTISRDDSKNSLYLQMNSLKTEDTAVYYCRYVHYGAYYGVDAWGQGTTVTVSS
VL: DIVMTQSPLSLPVTPGEPASISCRSSQSLVHSNRNTYLHWYQQKPGQAPRLLIYKVSNRFSGVPDRFSGSGSGTDFTLKISRVEAEDVGVYYCGQGTQVPYTFGQGTKLEIK
B13: CE115HA000 H35Y (antibody, name in Kabat numbering, V domains shown)
VH: QVQLVESGGGVVQPGRSLRLSCAASGFTFSNAWMYWVRQAPGKGLEWVAQIKAKSNNYATYYAESVKGRFTISRDDSKNSLYLQMNSLKTEDTAVYYCRYVHYGAYYGVDAWGQGTTVTVSS
VL: DIVMTQSPLSLPVTPGEPASISCRSSQSLVHSNRNTYLHWYQQKPGQAPRLLIYKVSNRFSGVPDRFSGSGSGTDFTLKISRVEAEDVGVYYCGQGTQVPYTFGQGTKLEIK
B14: CE115HA000 H96K (antibody, name in Kabat numbering, V domains shown)
VH: QVQLVESGGGVVQPGRSLRLSCAASGFTFSNAWMHWVRQAPGKGLEWVAQIKAKSNNYATYYAESVKGRFTISRDDSKNSLYLQMNSLKTEDTAVYYCRYVKYGAYYGVDAWGQGTTVTVSS
VL: DIVMTQSPLSLPVTPGEPASISCRSSQSLVHSNRNTYLHWYQQKPGQAPRLLIYKVSNRFSGVPDRFSGSGSGTDFTLKISRVEAEDVGVYYCGQGTQVPYTFGQGTKLEIK
B15: CE115HA000 G100bS (antibody, name in Kabat numbering, V domains shown)
VH: QVQLVESGGGVVQPGRSLRLSCAASGFTFSNAWMHWVRQAPGKGLEWVAQIKAKSNNYATYYAESVKGRFTISRDDSKNSLYLQMNSLKTEDTAVYYCRYVHYGAYYSVDAWGQGTTVTVSS
VL: DIVMTQSPLSLPVTPGEPASISCRSSQSLVHSNRNTYLHWYQQKPGQAPRLLIYKVSNRFSGVPDRFSGSGSGTDFTLKISRVEAEDVGVYYCGQGTQVPYTFGQGTKLEIK
B16: CE115HA000 H35D (antibody, name in Kabat numbering, V domains shown)
VH: QVQLVESGGGVVQPGRSLRLSCAASGFTFSNAWMDWVRQAPGKGLEWVAQIKAKSNNYATYYAESVKGRFTISRDDSKNSLYLQMNSLKTEDTAVYYCRYVHYGAYYGVDAWGQGTTVTVSS
VL: DIVMTQSPLSLPVTPGEPASISCRSSQSLVHSNRNTYLHWYQQKPGQAPRLLIYKVSNRFSGVPDRFSGSGSGTDFTLKISRVEAEDVGVYYCGQGTQVPYTFGQGTKLEIK
B17: CE115HA000 H35L (antibody, name in Kabat numbering, V domains shown)
VH: QVQLVESGGGVVQPGRSLRLSCAASGFTFSNAWMLWVRQAPGKGLEWVAQIKAKSNNYATYYAESVKGRFTISRDDSKNSLYLQMNSLKTEDTAVYYCRYVHYGAYYGVDAWGQGTTVTVSS
VL: DIVMTQSPLSLPVTPGEPASISCRSSQSLVHSNRNTYLHWYQQKPGQAPRLLIYKVSNRFSGVPDRFSGSGSGTDFTLKISRVEAEDVGVYYCGQGTQVPYTFGQGTKLEIK
B18: CE115HA000 H35G (antibody, name in Kabat numbering, V domains shown)
VH: QVQLVESGGGVVQPGRSLRLSCAASGFTFSNAWMGWVRQAPGKGLEWVAQIKAKSNNYATYYAESVKGRFTISRDDSKNSLYLQMNSLKTEDTAVYYCRYVHYGAYYGVDAWGQGTTVTVSS
VL: DIVMTQSPLSLPVTPGEPASISCRSSQSLVHSNRNTYLHWYQQKPGQAPRLLIYKVSNRFSGVPDRFSGSGSGTDFTLKISRVEAEDVGVYYCGQGTQVPYTFGQGTKLEIK
B19: CE115HA000 H35F (antibody, name in Kabat numbering, V domains shown)
VH: QVQLVESGGGVVQPGRSLRLSCAASGFTFSNAWMFWVRQAPGKGLEWVAQIKAKSNNYATYYAESVKGRFTISRDDSKNSLYLQMNSLKTEDTAVYYCRYVHYGAYYGVDAWGQGTTVTVSS
VL: DIVMTQSPLSLPVTPGEPASISCRSSQSLVHSNRNTYLHWYQQKPGQAPRLLIYKVSNRFSGVPDRFSGSGSGTDFTLKISRVEAEDVGVYYCGQGTQVPYTFGQGTKLEIK
B20: CE115HA000 H35R (antibody, name in Kabat numbering, V domains shown)
VH: QVQLVESGGGVVQPGRSLRLSCAASGFTFSNAWMRWVRQAPGKGLEWVAQIKAKSNNYATYYAESVKGRFTISRDDSKNSLYLQMNSLKTEDTAVYYCRYVHYGAYYGVDAWGQGTTVTVSS
VL: DIVMTQSPLSLPVTPGEPASISCRSSQSLVHSNRNTYLHWYQQKPGQAPRLLIYKVSNRFSGVPDRFSGSGSGTDFTLKISRVEAEDVGVYYCGQGTQVPYTFGQGTKLEIK
B21: CE115HA000 H35Q (antibody, name in Kabat numbering, V domains shown)
VH: QVQLVESGGGVVQPGRSLRLSCAASGFTFSNAWMQWVRQAPGKGLEWVAQIKAKSNNYATYYAESVKGRFTISRDDSKNSLYLQMNSLKTEDTAVYYCRYVHYGAYYGVDAWGQGTTVTVSS
VL: DIVMTQSPLSLPVTPGEPASISCRSSQSLVHSNRNTYLHWYQQKPGQAPRLLIYKVSNRFSGVPDRFSGSGSGTDFTLKISRVEAEDVGVYYCGQGTQVPYTFGQGTKLEIK

The binders below were run against T1, CD3ε homodimer protein (human, UniProt P07766 23-126, limits assumed, sulfo-tag or biotin label in some ECL assays) (assay: SPR, CD3ε homodimer on chip;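 further: biacore SPR with antibody variants flowed as analyte over amine-coupled CD3ε homodimer on a CM chip, bound amount of each single-residue H chain variant over that of parent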).
T1 construct: also called human CD3ε homodimer protein; CD3 (CD3ε)
T1 sequence (P07766 23-126 limits assumed): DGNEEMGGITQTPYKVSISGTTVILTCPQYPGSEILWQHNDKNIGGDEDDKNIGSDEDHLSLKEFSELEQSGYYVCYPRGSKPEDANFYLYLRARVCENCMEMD

Binder	ratio of amounts bound vs CE115HA000
B1	0.36
B2	0.22
B3	0.35
B4	0.3
B5	0.22
B6	0.26
B7	0.29
B8	0.37
B9	0.23
B10	0.12
B11	0.23
B12	0.15
B13	0.16
B14	0.35
B15	0.52
B16	0.2
B17	0.11
B18	0.22
B19	0.21
B20	0.14
B21	0.13
